# Experimental data: the supplement of paper PMC6757056
# ± gives the standard deviation of the averaged measurements.
# B1: library; a variant is named by its letters at N, in order (parent)
# chain: GCUGUCACCGGUGUAUUACCCUAGUGGUCGACCGGUCUGAUGAGUCUNNNNNNAGACGAAACAGC
# Columns and labels:
# [1] = variants of: B1; assay: FACS-Seq fitted mean relative fluorescence mCherry/BFP without ligand (log10 relative fluorescence); ligand: hypoxanthine (xanthine aptamer); higher = higher reporter protein expression; conditions: HEK293T, ligand present: no
# Procedure, shortened: (§1)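 Sorting into 6 bins by mCherry/BFP followed 48 h of incubation with or without ligand. The cells were enriched HEK293T libraries lentivirally bearing an mCherry reporter with the ribozyme switch and an EF1α-BFP marker, and bin genomic DNA was PCR-amplified, barcoded and sequenced on MiSeq. Fluorescence is the fitted normal mean of the bin counts. Means were fitted on log10(mCherry/BFP), scaled to five spiked-in control ribozymes.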
# [2] = variants of: B1; assay: normalized RNA/DNA level with ligand (relative to sTRSVctl = 100) (log10 (% of sTRSVctl)); ligand: hypoxanthine (xanthine aptamer); higher = less ribozyme self-cleavage, higher mRNA level; conditions: ligand concentration (+) RNA-Seq: 5 mM, HEK293T, reporter: mCherry (pCS4076), ligand present: yes
# Procedure, shortened: (§2)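 RNA level was computed as RNA reads over DNA reads divided by a spiked-in non-cleaving sequence or by the top sequences, then scaled and log-transformed. Scaling was ×100 with log10, the top group was 25 sequences, and the threshold was ≥100 DNA reads. The reads came from HEK293T cells transfected at 4 µg per 6-well well with ribozyme switch library plasmids (mCherry, or eGFP in some ligand experiments). Total RNA was extracted with EDTA 72 h after transfection, with any ligand added 1 h before it.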
# [3] = variants of: B1; assay: normalized RNA/DNA level without ligand (relative to sTRSVctl = 100) (log10 (% of sTRSVctl)); ligand: hypoxanthine (xanthine aptamer); higher = less ribozyme self-cleavage, higher mRNA level; conditions: HEK293T, reporter: mCherry (pCS4076), ligand present: no
# Procedure, shortened: as §2
# [4] = variants of: B1; assay: FACS-Seq fitted mean relative fluorescence mCherry/BFP with ligand (log10 relative fluorescence); ligand: hypoxanthine (xanthine aptamer); ligand concentration (+) FACS-Seq: 5 mM; higher = higher reporter protein expression; conditions: HEK293T, ligand present: yes
# Procedure, shortened: as §1
Variant,FACS-Seq fitted mean (log10) [1],normalized RNA/DNA level with ligand (log10) [2],normalized RNA/DNA level without ligand (log10) [3],FACS-Seq fitted mean (log10) [4]
AGCGAA,0.534 ± 0.068,1.924 ± 0.017,1.6852 ± 0.00025,0.62 ± 0.014
AGGGGC,0.795 ± 0.067,1.95 ± 0.047,1.86 ± 0.079,0.741 ± 0.049
AGGGGG,0.363 ± 0.12,1.88 ± 0.034,1.53 ± 0.07,0.631 ± 0.028
UGGACG,0.639 ± 0.083,1.96 ± 0.082,1.68 ± 0.048,0.676 ± 0.22
AGCCUU,0.466 ± 0.071,1.97 ± 0.022,1.933 ± 0.0025,0.317 ± 0.091
AGCCUG,0.523 ± 0.04,1.92 ± 0.059,1.5724 ± 0.00079,0.67 ± 0.037
GGGCAA,0.0453 ± 0.045,1.963 ± 0.0095,1.783 ± 0.013,0.266 ± 0.015
GGGCAU,-0.045 ± 0.015,1.933 ± 0.012,1.83 ± 0.075,0.103 ± 0.018
GGGCAG,0.0036 ± 0.061,1.881 ± 0.013,1.5894 ± 0.0015,0.434 ± 0.012
GGGCCA,0.693 ± 0.015,1.9809 ± 0.00094,1.99 ± 0.032,0.808 ± 0.082
GGGCCG,-0.0164 ± 0.068,1.98 ± 0.05,1.923 ± 0.0046,0.175 ± 0.031
AGGGCG,0.511 ± 0.024,1.91 ± 0.028,1.57 ± 0.1,0.709 ± 0.089
AGGGCA,0.0731 ± 0.046,1.97 ± 0.02,1.815 ± 0.016,0.174 ± 0.034
UGGUUC,-0.0246 ± 0.0066,1.96 ± 0.063,1.925 ± 0.018,0.212 ± 0.028
GGGAAA,0.227 ± 0.0031,1.867 ± 0.0029,1.57 ± 0.028,0.428 ± 0.03
GGGAAG,-0.183 ± 0.0054,1.64 ± 0.023,1.18 ± 0.014,0.325 ± 0.0034
GGGAAU,0.489 ± 0.043,1.93 ± 0.045,1.64 ± 0.021,0.654 ± 0.069
UGGCAG,0.155 ± 0.013,1.91 ± 0.045,1.69 ± 0.045,0.563 ± 0.052

Variant,FACS-Seq fitted mean (log10) [1],normalized RNA/DNA level with ligand (log10) [2],normalized RNA/DNA level without ligand (log10) [3],FACS-Seq fitted mean (log10) [4]
UGGCAU,0.353 ± 0.011,1.95 ± 0.06,1.755 ± 0.014,0.465 ± 0.046
GGGCUG,0.228 ± 0.058,1.967 ± 0.0031,1.775 ± 0.0099,0.495 ± 0.026
GGGCUA,0.512 ± 0.024,2.01 ± 0.015,1.943 ± 0.015,0.456 ± 0.011
UGCUCA,0.419 ± 0.016,1.94 ± 0.0052,1.98 ± 0.061,0.498 ± 0.057
GGGCGG,0.372 ± 0.034,1.9325 ± 0.00079,1.577 ± 0.0083,0.586 ± 0.017
AGGAUG,0.132 ± 0.024,1.79 ± 0.042,1.25 ± 0.045,0.526 ± 0.06
AGGAUA,-0.536 ± 0.015,1.9 ± 0.027,1.677 ± 0.0074,-0.0798 ± 0.042
CGCGGG,0.374 ± 0.021,1.84 ± 0.026,1.36 ± 0.036,0.72 ± 0.051
UGCGUA,0.287 ± 0.015,1.92 ± 0.05,1.86 ± 0.032,0.413 ± 0.031
GGCCUG,0.145 ± 0.02,1.99 ± 0.062,1.809 ± 0.013,0.239 ± 0.046
CGGGUA,0.436 ± 0.033,1.94 ± 0.044,1.82 ± 0.068,0.64 ± 0.015
CGGGUU,-0.0176 ± 0.018,1.99 ± 0.027,1.89 ± 0.044,-0.176 ± 0.051
GGGGCU,-0.598 ± 0.026,1.99 ± 0.074,2.008 ± 0.015,-0.677 ± 0.077
GGGGCC,-0.395 ± 0.028,1.97 ± 0.036,1.89 ± 0.077,0.0142 ± 0.039
CGCUAG,0.118 ± 0.0022,1.89 ± 0.063,1.79 ± 0.051,0.183 ± 0.14
GGGACG,0.352 ± 0.016,1.894 ± 0.014,1.51 ± 0.021,0.708 ± 0.031
AGCGCU,0.228 ± 0.049,1.93 ± 0.032,1.85 ± 0.028,0.22 ± 0.0027
AGCGCG,0.0574 ± 0.015,1.91 ± 0.083,1.43 ± 0.051,0.359 ± 0.012
